Reference: the supplement of paper PMC5998384

Legend:
HeLa Kyoto [1] = test: solubility in G1/S (NP-40 vs SDS abundance) (log2 ratio); higher = more soluble; settings: cell cycle stage: G1/S
HeLa Kyoto [2] = test: solubility change mitosis vs G1/S (difference of NP-40 vs SDS log2 ratios) (log2 ratio difference); higher = more soluble in mitosis
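For solubility change mitosis vs G1/S (difference of NP-40 vs SDS log2 ratios) in this document: synchronized HeLa Kyoto cells (double thymidine block for G1/S, nocodazole release for mitosis), protein amounts in NP-40 versus SDS lysates quantified by mass spectrometry, three biological replicates.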
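For solubility in G1/S (NP-40 vs SDS abundance) in this document: HeLa Kyoto cells arrested at G1/S by double thymidine block, proteins quantified by TMT10plex mass spectrometry in mild NP-40 versus SDS extracts, three biological replicates.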

Sequence	solubility in G1/S (log2) (HeLa Kyoto [1])	solubility change mitosis (log2) (HeLa Kyoto [2])
MKTVLMVAEKPSLAQSIAKILSRGSLSSHKGLNGACSVHEYTGTFAGQPVRFKMTSVCGHVMTLDFLGKYNKWDKVDPAELFSQAPTEKKEANPKLNMVKFLQVEGRGCDYIVLWLDCDKEGENICFEVLDAVLPVMNKAHGGEKTVFRARFSSITDTDICNAMACLGEPDHNEALSVDARQELDLRIGCAFTRFQTKYFQGKYGDLDSSLISFGPCQTPTLGFCVERHDKIQSFKPETYWVLQAKVNTDKDRSLLLDWDRVRVFDREIAQMFLNMTKLEKEAQVEATSRKEKAKQRPLALNTVEMLRVASSSLGMGPQHAMQTAERLYTQGYISYPRTETTHYPENFDLKGSLRQQANHPYWADTVKRLLAEGINRPRKGHDAGDHPPITPMKSATEAELGGDAWRLYEYITRHFIATVSHDCKYLQSTISFRIGPELFTCSGKTVLSPGFTEVMPWQSVPLEESLPTCQRGDAFPVGEVKMLEKQTNPPDYLTEAELITLMEKHGIGTDASIPVHINNICQRNYVTVESGRRLKPTNLGIVLVHGYYKIDAELVLPTIRSAVEKQLNLIAQGKADYRQVLGHTLDVFKRKFHYFVDSIAGMDELMEVSFSPLAATGKPLSRCGKCHRFMKYIQAKPSRLHCSHCDETYTLPQNGTIKLYKELRCPLDDFELVLWSSGSRGKSYPLCPYCYNHPPFRDMKKGMGCNECTHPSCQHSLSMLGIGQCVECESGVLVLDPTSGPKWKVACNKCNVVAHCFENAHRVRVSADTCSVCEAALLDVDFNKAKSPLPGDETQHMGCVFCDPVFQELVELKHAASCHPMHRGGPGRRQGRGRGRARRPPGKPNPRRPKDKMSALAAYFV [TOP3B]	-0.535	0.0647
MEESMEEEEGGSYEAMMDDQNHNNWEAAVDGFRQPLPPPPPPSSIPAPAREPPGGQLLAVPAVSVDRKGPKEGLPMGPQPPPEANGVIMMLKSCDAAAAVAKAAPAPTASSTININTSTSKFLMNVITIEDYKSTYWPKLDGAIDQLLTQSPGDYIPISYEQIYSCVYKCVCQQHSEQMYSDLIKKITNHLERVSKELQASPPDLYIERFNIALGQYMGALQSIVPLFIYMNKFYIETKLNRDLKDDLIKLFTEHVAEKHIYSLMPLLLEAQSTPFQVTPSTMANIVKGLYTLRPEWVQMAPTLFSKFIPNILPPAVESELSEYAAQDQKFQRELIQNGFTRGDQSRKRAGDELAYNSSSACASSRGYR [CACUL1]	0.278	0.103
MRDSTGAGNSLVHKRSPLRRNQKTPTSLTKLSLQDGHKAKKPACKFEEGQDVLARWSDGLFYLGTIKKINILKQSCFIIFEDSSKSWVLWKDIQTGATGSGEMVCTICQEEYSEAPNEMVICDKCGQGYHQLCHTPHIDSSVIDSDEKWLCRQCVFATTTKRGGALKKGPNAKALQVMKQTLPYSVADLEWDAGHKTNVQQCYCYCGGPGDWYLKMLQCCKCKQWFHEACVQCLQKPMLFGDRFYTFICSVCSSGPEYLKRLPLQWVDIAHLCLYNLSVIHKKKYFDSELELMTYINENWDRLHPGELADTPKSERYEHVLEALNDYKTMFMSGKEIKKKKHLFGLRIRVPPVPPNVAFKAEKEPEGTSHEFKIKGRKASKPISDSREVSNGIEKKGKKKSVGRPPGPYTRKMIQKTAEPLLDKESISENPTLDLPCSIGRTEGTAHSSNTSDVDFTGASSAKETTSSSISRHYGLSDSRKRTRTGRSWPAAIPHLRRRRGRLPRRALQTQNSEIVKDDEGKEDYQFDELNTEILNNLADQELQLNHLKNSITSYFGAAGRIACGEKYRVLARRVTLDGKVQYLVEWEGATAS [MTF2]	-1.31	0.618
MPSSTSPDQGDDLENCILRFSDLDLKDMSLINPSSSLKAELDGSTKKKYSFAKKKAFALFVKTKEVPTKRSFECKEKLWKCCRQLFTDQTSIHRHVATQHADEIYHQTASILKQLAVTLSTSKSLSSADEKNPLKECLPHSHDVSAWLPDISCFNPDELISGQGSEEGEVLLYYCYHDLEDPQWICAWQTALCQHLHLTGKIRIAAEGINGTVGGSKLATRLYVEVMLSFPLFKDDLCKDDFKTSKGGAHCFPELRVGVFEEIVPMGISPKKISYKKPGIHLSPGEFHKEVEKFLSQANQEQSDTILLDCRNFYESKIGRFQGCLAPDIRKFSYFPSYVDKNLELFREKRVLMYCTGGIRCERGSAYLKAKGVCKEVFQLKGGIHKYLEEFPDGFYKGKLFVFDERYALSYNSDVVSECSYCGARWDQYKLCSTPQCRQLVLTCPACQGQGFTACCVTCQDKGSRKVSGPMQDSFKEECECTARRPRIPRELLQHVRQPVSPEPGPDADEDGPVLM [TSTD2]	0.0173	-0.113
MSMTLGYWDIRGLAHAIRLLLEYTDSSYEEKKYTMGDAPDYDRSQWLNEKFKLGLDFPNLPYLIDGAHKITQSNAILCYIARKHNLCGETEEEKIRVDILENQAMDVSNQLARVCYSPDFEKLKPEYLEELPTMMQHFSQFLGKRPWFVGDKITFVDFLAYDVLDLHRIFEPNCLDAFPNLKDFISRFEGLEKISAYMKSSRFLPKPLYTRVAVWGNK [GSTM4]	-0.0869	-0.101
MTAVNVALIRDTKWLTLEVCREFQRGTCSRADADCKFAHPPRVCHVENGRVVACFDSLKGRCTRENCKYLHPPPHLKTQLEINGRNNLIQQKTAAAMFAQQMQLMLQNAQMSSLGSFPMTPSIPANPPMAFNPYIPHPGMGLVPAELVPNTPVLIPGNPPLAMPGAVGPKLMRSDKLEVCREFQRGNCTRGENDCRYAHPTDASMIEASDNTVTICMDYIKGRCSREKCKYFHPPAHLQARLKAAHHQMNHSAASAMALQPGTLQLIPKRSALEKPNGATPVFNPTVFHCQQALTNLQLPQPAFIPAGPILCMAPASNIVPMMHGATPTTVSAATTPATSVPFAAPTTGNQLKF [MBNL3]	0.0798	0.156
MFSALKKLVGSDQAPGRDKNIPAGLQSMNQALQRRFAKGVQYNMKIVIRGDRNTGKTALWHRLQGRPFVEEYIPTQEIQVTSIHWSYKTTDDIVKVEVWDVVDKGKCKKRGDGLKMENDPQEAESEMALDAEFLDVYKNCNGVVMMFDITKQWTFNYILRELPKVPTHVPVCVLGNYRDMGEHRVILPDDVRDFIDNLDRPPGSSYFRYAESSMKNSFGLKYLHKFFNIPFLQLQRETLLRQLETNQLDMDATLEELSVQQETEDQNYGIFLEMMEARSRGHASPLAANGQSPSPGSQSPVVPAGAVSTGSSSPGTPQPAPQLPLNAAPPSSVPPVPPSEALPPPACPSAPAPRRSIISRLFGTSPATEAAPPPPEPVPAAEGPATVQSVEDFVPDDRLDRSFLEDTTPARDEKKVGAKAAQQDSDSDGEALGGNPMVAGFQDDVDLEDQPRGSPPLPAGPVPSQDITLSSEEEAEVAAPTKGPAPAPQQCSEPETKWSSIPASKPRRGTAPTRTAAPPWPGGVSVRTGPEKRSSTRPPAEMEPGKGEQASSSESDPEGPIAAQMLSFVMDDPDFESEGSDTQRRADDFPVRDDPSDVTDEDEGPAEPPPPPKLPLPAFRLKNDSDLFGLGLEEAGPKESSEEGKEGKTPSKEKKKKKKKGKEEEEKAAKKKSKHKKSKDKEEGKEERRRRQQRPPRSRERTAADELEAFLGGGAPGGRHPGGGDYEEL [RABL6]	0.183	-0.0863
MAELGEADEAELQRLVAAEQQKAQFTAQVHHFMELCWDKCVEKPGNRLDSRTENCLSSCVDRFIDTTLAITSRFAQIVQKGGQ [TIMM8B]	-0.938	0.734
